Data taken from doi:10.1101/686782 (bioRxiv, 2019).

B1: P. savastanoi FliP (natural protein)
chain: ADPLSIPAITLSNGADGQQEYSVSLQILLIMTALSFIPAFVMLMTSFTRIIIVFSILRQALGLQQTPSNQILTGMALFLTMFIMAPVFDRVNQDALQPYLAEKLSAQDAVAKAQVPIKDFMLAQTRTSDLELFMRLSKRTDIPTPDAAPLTILVPAFVISELKTAFQIGFMIFIPFLIIDLVVASVLMAMGMMMLSPLIISLPFKIMLFVLVDGWALIVGTLAGSFGGV
B2: P. savastanoi FliQ (natural protein)
chain: MTPEVAVDLFREALWLTTVLVAILVVPSLLCGLLVAMFQAATQINEQTLSFLPRLLVMLVTLIVIGPWLLKIFMEYMLSLYTSIPTLIG
notes: also called FliQ5

Target: the molecule itself
Assay: cryo-EM structure

Row | Protein | stoichiometry N
1 | B1 | 5
2 | B2 | 5
